According to patent US20250101091A1 (Eli Lilly, published 2025):

What was measured:
Cleaved rat epiregulin [1] = biological target: T1, Cleaved rat epiregulin (rat, UniProt Q9Z0L5 56-101); assay: cell-based or functional assay
Cleaved rat epiregulin [2] = biological target: T1, Cleaved rat epiregulin; assay: MSD-SET solution equilibrium titration, 37 C, pH 6.0
Description: (§1) An MSD SI6000 instrument (Meso Scale Discovery, Rockville, MD) is used for reading MSD plates. MSD assay plates are prepared as follows. A multi-array 96-well plate (Meso Scale Discovery, P/N L15XA-3) is coated overnight at 2-8° C. with 30 μl of a 1 μg/ml solution of a monomeric Fc-human epiregulin fusion in PBS. Plates are washed 3× in PBST following coating, then blocked for 1 hour at room temperature with shaking in 3% Blocker A (diluted in PBS from 5% Blocker A, Meso Scale Discovery, P/N R93AA-1).
(§2) SET samples are prepared in 1% Blocker A at pH 6.0 and at pH 7.4. Antibody is diluted to either 20 and 200 μM (pH 7.4) or 200 μM and 2 nM (pH 6.0). Epiregulin is serially diluted for a total of 12 dilutions centered around 2× the antibody concentration. This is accomplished by using starting concentrations of 10 and 100 nM (pH 7.4) or 100 nM and 1000 nM (pH 6.0) which are then 10× diluted once, 2× serially diluted 9 times, and then 10× diluted for the final dilution. Epiregulin titrations and fixed concentration antibody solutions are combined 1:1 to prepare the SET solutions. SET solutions are incubated at 37° C. for approximately 96 hours to allow binding to reach equilibrium. […] The plate is then washed 3× with PBST, then 100 μl of 1× Read Buffer T (diluted in water from 4× Read Buffer T, Meso Scale Discovery, P/N R93AA-1) is added before reading the plate. […]

Cleaved rat epiregulin [3] = biological target: T1, Cleaved rat epiregulin; assay: MSD-SET solution equilibrium titration, 37 C, pH 7.4
Description: as §1, §2

EGF = biological target: T2, EGF (human, UniProt P01133 971-1023); assay: ELISA: biotinylated ligand (20 nM) captured on neutravidin plate, antibody titrated 1:3, anti-human kappa-AP detection, OD405 [panel A]
T2 construct: Bought reagent, biotinylated in the ELISA; also called epidermal growth factor
Description: (§3) ELISA assays can be run as follows. […] After blocking, plates are washed 3 times with PBS plus 0.05% Tween20 to remove residual blocking buffer. […] Ligands are transferred to blocked assay plate and incubated at room temperature for 1 hour. The assay plate is washed 3 times with PBS plus 0.05% Tween20. […] The assay plate is washed 3 times with PBS plus 0.05% Tween20. […] The assay plate is washed 3 times with PBS plus 0.05% Tween20.

HB-EGF = biological target: T3, HB-EGF (human, UniProt Q99075 63-148); assay: as above
T3 construct: Bought reagent, biotinylated in the ELISA
Description: as §3

TGFα = biological target: T4, TGFα (human, UniProt P01135 40-89); assay: as above
T4 construct: Bought reagent, biotinylated in the ELISA; also called TGFA; transforming growth factor alpha
Description: as §3

human Epigen = biological target: T5, human Epigen (human, UniProt Q6UW88 53-104, limits assumed); assay: as above
T5 construct: Bought reagent, biotinylated in the ELISA; also called EPGN
Description: as §3

Amphiregulin = biological target: T6, Amphiregulin (human, UniProt P15514 101-198); assay: as above
T6 construct: Bought reagent, biotinylated in the ELISA; also called AREG
T6 sequence (looked up): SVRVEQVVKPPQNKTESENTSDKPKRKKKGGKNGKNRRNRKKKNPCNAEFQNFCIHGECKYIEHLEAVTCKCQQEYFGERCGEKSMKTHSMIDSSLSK
Description: as §3

Betacellulin = biological target: T7, Betacellulin (human, UniProt P35070 32-111); assay: as above
T7 construct: Bought reagent, biotinylated in the ELISA; also called BTC
T7 sequence (looked up): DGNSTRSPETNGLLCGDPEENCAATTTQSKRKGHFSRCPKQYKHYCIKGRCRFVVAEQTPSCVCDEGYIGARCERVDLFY
Description: as §3

B1: Antibody 1 (antibody, human IgG4 S228P, kappa, F234A L235A, V domains shown)
VH: QVQLQESGPGLVKPSETLSLTCTVSGGSISSYYWSWIRQPAGKGLEWIGRIYPSGNTNYNPSLKSRVTISVDTSKNQFSLKLSSVTAADTAVYYCARGGLVMDVWGQGTLVTVSS
VL: EIVLTQSPGTLSLSPGERATLSCRASQSVEFSYLAWYQQKPGQAPRLLIYGASSRATGIPDRFSGSGSGTDFTLTISRLEPEDFAVYYCHQYGTNPFTFGQGTKVEIKR
notes: Fully human IgG4 (S228P, F234A/L235A by EU index, C-terminal Lys deleted), kappa light chain
IC50, neutralization of epiregulin induced luciferase reporter activity in C166-AP1-Luciferase cells (Cleaved rat epiregulin [1]): 2500 pM
Kd (Cleaved rat epiregulin [2]): 286 pM
Kd (Cleaved rat epiregulin [3]): 30.2 pM
binding result (EGF): no binding (tested: 10 ug/mL)
binding result (HB-EGF): no binding (tested: 10 ug/mL)
binding result (TGFα): no binding (tested: 10 ug/mL)
binding result (human Epigen): no binding (tested: 10 ug/mL)
binding result (Amphiregulin): no binding (tested: 10 ug/mL)
binding result (Betacellulin): no binding (tested: 10 ug/mL)
